# Measurements reported in the supplement of paper PMC9112550, “Optimization of the antimicrobial peptide Bac7 by deep mutational scanning” (BMC Biology, 2022).
# System: Escherichia coli TOP10
# Test: shrunken log2 fold change of peptide-encoding DNA abundance (4.5 h post-induction vs induction); higher = less antimicrobial activity (less host growth inhibition)
# Conditions: time post-induction: 4.5 h; library: site-saturation at positions 5, 18, 19, 20
# 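Also: peptides expressed intracellularly from a pBAD plasmid library in pooled LB shake-flask culture, induced with 0.3% L-arabinose, DNA abundance read by NGS, three biological replicates, DESeq2 with apeglm shrinkage.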
row,Sequence,shrunken log2 fold change
1,RRIRKRPPRLPRPRPRPSWWPRP,0.138
2,RRIRLRPPRLPRPRPRPFDLPRP,-0.0989
3,RRIRYRPPRLPRPRPRPATKPRP,0.171
4,RRIRLRPPRLPRPRPRPKTGPRP,0.25
5,RRIRERPPRLPRPRPRPGFQPRP,-0.104
6,RRIRGRPPRLPRPRPRPKTAPRP,0.808
7,RRIRERPPRLPRPRPRPSAYPRP,-0.354
8,RRIRWRPPRLPRPRPRPVIGPRP,0.183
9,RRIRERPPRLPRPRPRPCCQPRP,-0.485
10,RRIRWRPPRLPRPRPRPEGYPRP,0.607
11,RRIRCRPPRLPRPRPRPIQMPRP,-0.0491
12,RRIRQRPPRLPRPRPRPVPYPRP,-0.363
13,RRIRQRPPRLPRPRPRPWSLPRP,-0.0828
14,RRIRNRPPRLPRPRPRPKSGPRP,0.161
15,RRIRMRPPRLPRPRPRPCYRPRP,0.035
16,RRIRWRPPRLPRPRPRPGSYPRP,-0.0955
17,RRIRQRPPRLPRPRPRPANIPRP,-0.275
18,RRIRWRPPRLPRPRPRPPNQPRP,0.363
19,RRIRFRPPRLPRPRPRPWREPRP,-0.149
20,RRIRDRPPRLPRPRPRPTGCPRP,0.247

row,Sequence,shrunken log2 fold change
1,RRIRRRPPRLPRPRPRPQHLPRP,-0.289
2,RRIRDRPPRLPRPRPRPNMCPRP,-0.0431
3,RRIRLRPPRLPRPRPRPQELPRP,-0.0432
4,RRIRTRPPRLPRPRPRPKRRPRP,0.513
5,RRIRHRPPRLPRPRPRPTVCPRP,0.196
6,RRIRNRPPRLPRPRPRPKNLPRP,0.13
7,RRIRMRPPRLPRPRPRPAGRPRP,0.725
8,RRIRWRPPRLPRPRPRPGGPPRP,0.367
9,RRIRLRPPRLPRPRPRPQRMPRP,-0.124
10,RRIRWRPPRLPRPRPRPKLNPRP,0.318
11,RRIRKRPPRLPRPRPRPFCEPRP,-0.0765
12,RRIRIRPPRLPRPRPRPAGMPRP,-0.0321
13,RRIRNRPPRLPRPRPRPEGMPRP,0.225
14,RRIRKRPPRLPRPRPRPFMSPRP,0.0192
15,RRIRMRPPRLPRPRPRPLFRPRP,1.44
16,RRIRYRPPRLPRPRPRPWMHPRP,-0.519
17,RRIRPRPPRLPRPRPRPFDFPRP,-0.206
18,RRIRLRPPRLPRPRPRPLLTPRP,0.0657
19,RRIRCRPPRLPRPRPRPNFPPRP,0.346
20,RRIRHRPPRLPRPRPRPSWYPRP,-0.152

row,Sequence,shrunken log2 fold change
1,RRIRPRPPRLPRPRPRPECKPRP,-0.352
2,RRIRCRPPRLPRPRPRPAGQPRP,-0.109
3,RRIRPRPPRLPRPRPRPDVYPRP,-0.194
4,RRIRIRPPRLPRPRPRPFRCPRP,-0.192
5,RRIRKRPPRLPRPRPRPIACPRP,0.104
6,RRIRLRPPRLPRPRPRPQKMPRP,-0.0278
7,RRIRERPPRLPRPRPRPYTQPRP,-0.0502
8,RRIRHRPPRLPRPRPRPQLWPRP,0.0534
9,RRIRPRPPRLPRPRPRPCKFPRP,-0.0234
10,RRIRHRPPRLPRPRPRPTQMPRP,0.222
11,RRIRNRPPRLPRPRPRPVRHPRP,-0.0637
12,RRIRFRPPRLPRPRPRPKGYPRP,0.00663
13,RRIRDRPPRLPRPRPRPIPLPRP,-0.0193
14,RRIRPRPPRLPRPRPRPSQPPRP,0.122
15,RRIRRRPPRLPRPRPRPFCMPRP,0.084
16,RRIRCRPPRLPRPRPRPGAYPRP,-0.319
17,RRIRSRPPRLPRPRPRPIMDPRP,-0.0619
18,RRIRGRPPRLPRPRPRPMWKPRP,0.0121
19,RRIRDRPPRLPRPRPRPHMEPRP,0.198
20,RRIRPRPPRLPRPRPRPTFKPRP,0.0985
